Assay results from article PMC10870823 (mBio, 2023).

Target: T1, SARS-CoV-2 (Wuhan / WA-1) Spike RBD-mouse IgG2a Fc fusion protein (SARS-CoV-2, UniProt P0DTC2)
T1 construct: source: recombinant, purified
Assay: BLI
Settings: both partners purified

B1: FG-10A3 (Family G clone 10A3) human anti-SARS-CoV-2 Spike RBD monoclonal antibody (antibody, V domains shown)
VH: QVQLVESGGGVVQPGRSLRLSCAASGFTFSSYGMNWVRQAPGKGLEWVAIIWYDGNNTYYVDSVKGRFTISRDNSKNTLYLQMNSLRAEDTAVYYCARKDGSKTYYGYYFDYWGQGTLVTVSS
VL: DIQMTQSPSSLSASVGDRVTITCRASQSIHSFLNWYQQKPGKPPNLLIYAASSLQSGLPSRFSGSGSGTDFTLTISSLQPEDFATYYCQQSYITPPTFGHGTKVEIK
notes: also called Family G (FG)-10A3
Work on B1 yielded a Kd of 0.125 nM.
